Assay results taken from patent US20120083423.

Target: autoantibodies to BRAF purified from the sera of RA patients

B1: BRAF (protein)
chain: LQKSPGPQRERKSSSSSEDRNRMKTLGRRDSSDDWEIPDGQITVGQRIGSGSFGTVYKGKWHGDVAVKMLNVTAPTPQQLQAFKNEVGVLRKTRHVNILLFMGYSTKPQLAIVTQWCEGSSLYHHLHIIETKFEMIKLIDIARQTAQGMDYLHAKSIIHRDLKSNNIFLHEDLTVKIGDFGLATVKSRWSGSHQFEQLSGSILWMAPEVIRMQDKNPYSFQSDVYAFGIVLYELMTGQLPYSNINNRDQIIFMVGRGYLSPDLSKVRSNCPKAMKRLMAECLKKKRDERPLFPQILASIELLARSLPKIHRSASEPSLNRAGFQTEDFSLYACASPKTPIQAGGYGAFPVH
phosphorylation of MEK1 by BRAF: 80% of anti-BRAF autoantibodies activate phosphorylation of MEK1 by BRAF in vitro
